The data set in a line: protein stability index of a GFP-peptide fusion (yeast GPS) (PSI 1-4); higher = more stable; sorted into four equal gates, so the index is relative within each strain. The procedure, abridged: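 Plasmids isolated from each sorting gate were PCR-amplified and Illumina-sequenced, and barcodes assigned the reads to strains. The gates, four of equal size, were set by GFP/Cherry fluorescence ratio on mid-log cultures in leucine-free medium. These cultures were yeast carrying a pooled library of tiled 17-residue yeast protein peptides fused downstream of GFP on a plasmid that also expresses Cherry. The protein stability index is the sum of every gate's read frequency times its gate number.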

± gives the uncertainty stated by the source.

With GLSMLAKLKELAEDVDD [RPC31], the protein stability index is, setting by setting: (doa10∆) 2.92 ± 0.079; (pdr5∆) 3.31 ± 0.061; (san1∆) 2.87 ± 0.078; (ubr1∆) 2.95 ± 0.047.
Take EISTSKKNNLEFGTYGK [RPN14]: the protein stability index by setting is: (doa10∆) 2.6 ± 0.08; (pdr5∆) 2.13 ± 0.061; (san1∆) 2.17 ± 0.082; (ubr1∆) 2.04 ± 0.059.
On to ALAFGYVKSLHKQISAE [SIN4], for which the protein stability index was 1.65 ± 0.056 (doa10∆), 2.21 ± 0.064 (pdr5∆), 1.78 ± 0.11 (san1∆) and 2.32 ± 0.043 (ubr1∆).
On the same counts, the results for LGVKNLGLCCLLDVKLA [YCG1] are 1.54 ± 0.05, 1.58 ± 0.045, 1.82 ± 0.063 and 1.81 ± 0.038.
Taken in the same sequence, the figures for EYTINLHKRLHGVSFKK [RPL31A] were 2.24 ± 0.093, 2.19 ± 0.088, 2.14 ± 0.11 and 1.61 ± 0.061.
Taken in the same sequence, the figures for RVFNAKDTTGPKAISNF [YCS4] were 2.9 ± 0.1, 2.82 ± 0.13, 3.18 ± 0.11 and 2.9 ± 0.1.
For the sequence LMQNMMNMFGGGMGGGM [SRP54], the protein stability index stood at 1.85 ± 0.16 (doa10∆), 2.53 ± 0.063 (pdr5∆), 2.47 ± 0.17 (san1∆) and 2.27 ± 0.081 (ubr1∆).
Taken in the same sequence, the figures for NIKPVEQHHINNLKNSG [GAL11] were 2.69 ± 0.062, 2.59 ± 0.049, 2.36 ± 0.069 and 2.47 ± 0.041.
Consider LDDNSTSLEKQINSIKK [YJL041W/NSP1], for which the protein stability index by setting is: (doa10∆) 2.74 ± 0.078; (pdr5∆) 3.01 ± 0.058; (san1∆) 2.98 ± 0.038; (ubr1∆) 2.95 ± 0.045.
Taken in the same sequence, the figures for EPEFHALSQSSLLKTKL [RRI1] were 2.15 ± 0.042, 2.69 ± 0.039, 2.39 ± 0.042 and 2.24 ± 0.037.
In turn, ELSIRFPQYKLTTFANQ [ARP7] had a protein stability index (doa10∆) of 1.69 ± 0.062, a protein stability index (pdr5∆) of 1.51 ± 0.085, a protein stability index (san1∆) of 1.65 ± 0.12 and a protein stability index (ubr1∆) of 1.59 ± 0.051.
On the same counts, the results for PKWERVFLFDIEKVDRE [RRI2] are 2.4 ± 0.1, 2.33 ± 0.056, 2.1 ± 0.1 and 2.57 ± 0.073.
As to LRSTEYSKSFEQFKMVS [POP1], the protein stability index came out at 2.21 ± 0.089 (doa10∆), 2.63 ± 0.12 (pdr5∆), 2.49 ± 0.094 (san1∆) and 2.52 ± 0.11 (ubr1∆).
Taken in the same sequence, the figures for FGEWAGMTKSNIYNFSP [BRR2] were 2.94 ± 0.083, 3.05 ± 0.082, 2.89 ± 0.055 and 2.98 ± 0.052.
On the same counts, the results for LKEDDSSLYEASLNALK [RPN1] are 3.44 ± 0.24, 3.18 ± 0.14, 3.5 ± 0.12 and 2.95 ± 0.093.
As to NLTRGINLRKVAEKMNG [RPT6], the protein stability index runs as follows: (doa10∆) 1.63 ± 0.069; (pdr5∆) 1.47 ± 0.05; (san1∆) 2.31 ± 0.052; (ubr1∆) 1.28 ± 0.044.
Turning to LMTSHTKGDTSKATGAP [RTT102], the protein stability index (doa10∆) came to 3.12 ± 0.068, the protein stability index (pdr5∆) turned out to be 3.34 ± 0.079, the protein stability index (san1∆) was determined as 3.27 ± 0.059 and the protein stability index (ubr1∆) is 3.17 ± 0.06.
On the same counts, the results for ERKLKFSNRFLPVASPF [FAS1] are 3.02 ± 0.12, 3.16 ± 0.11, 2.91 ± 0.094 and 2.85 ± 0.099.
Taken in the same sequence, the figures for QVATKYASLKLPNQIPG [YMR129W/POM152] were 1.69 ± 0.038, 1.68 ± 0.041, 1.67 ± 0.052 and 1.84 ± 0.029.
Taken in the same sequence, the figures for AAKGSSTSYAIKKKDEL [RPS5] were 3.4 ± 0.18, 1.82 ± 0.085, 3.35 ± 0.087 and 3.28 ± 0.13.
Consider KCFDDIEPHIFDQLIEW [YCG1], for which the protein stability index runs as follows: (doa10∆) 3.2 ± 0.075; (pdr5∆) 3.1 ± 0.081; (san1∆) 3.31 ± 0.046; (ubr1∆) 3.3 ± 0.046.
Turning to SLDRVAWRTLVGVSHTN [CYT1], the protein stability index runs as follows: (doa10∆) 1.3 ± 0.053; (pdr5∆) 1.31 ± 0.048; (san1∆) 1.34 ± 0.11; (ubr1∆) 1.25 ± 0.043.
On the same counts, the results for ARAAKIAPRPLDLLRPV [RPL13B] are 2.81 ± 0.07, 3.04 ± 0.064, 3.07 ± 0.056 and 2.41 ± 0.043.
Taken in the same sequence, the figures for NKTNNEDLFDDYPSTSL [NUT1] were 2.22 ± 0.078, 3.09 ± 0.054, 2.85 ± 0.12 and 1.79 ± 0.061.
Taken in the same sequence, the figures for GLNSDAEEVRNFALTTL [ECM29] were 2.84 ± 0.14, 3.13 ± 0.29, 1.38 ± 0.098 and 1.62 ± 0.11.

These data come from the supplement of paper PMC9732359.
